From the domain aggregation screens of Martell et al. (2025) come the findings set out here.

This data set in a line: soluble fraction after stress (log2 fold change); higher = more stays soluble; pooled small domains, quantitative proteomics. The conditions noted are these: stress: 50 degC. Put shortly: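 Each library was heated to 50°C as a stress step. The libraries, made up of small protein domains, were pooled and analysed at high throughput by quantitative proteomics. The reported value is the base-two logarithm of the fold change in each protein's soluble amount after stress, taken as a measure of aggregation propensity. The higher the value, the more protein stays in solution.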

On to “HMDLGTHMRLIVPTGMRVDHIVYESNGKNISVDHDRSISVRWNGEVVSIDVSPLPSRPDFDVLIYMSPK”, for which the “soluble fraction (log2)” value is -0.0114.

Consider “HMPQQVFKREDLQKWGLTGQADSRKRREKLGQLLGIGYGNGKQLIHRLNMFQVDRATFEQAIKQINQEEDH”, for which the “soluble fraction (log2)” value was -0.423.

Regarding “HMNSILFAITKEGGVVYGGKPVGVNGVRPLVRRLLQSEEMPVILQVDEKADAGLVIRVIDESKLGGASKV”, the “soluble fraction (log2)” value was -0.269.

Turning to “HMEGNLVEIFEDAFGRTMSTMDIEYINQFKRTGYDDEMIVSALREAVKSNALSFRYIERVLENWAHS”, the “soluble fraction (log2)” value was -0.202.

Consider “HMIDEPENLIQEDKMVNIIYDLALLEGVKTFNSSNFQSVKSNDFVYKKYKIDSLQFAKSTQFYASDINR”, for which the “soluble fraction (log2)” value was -0.168.

In the case of “HMSEGEMSQWIIAQAKQQGGGFQPDAARLLGSYVGNNTLRARQEIDKLLTYVGPSRVVTPEDVVLLTA”, the “soluble fraction (log2)” value was -0.0143.

As for “HMFRPRIEPGAKGSYVLEVQKRLAKLGYEHAGFDGVYGPGTERAIMQLQRDKGLPVTGIVDMRTYEALGLF”, the “soluble fraction (log2)” value was -0.46.

As for “HMSETAVTYNEDFEADGSLRPNEQAVLDAFTGVLKLTVSELEKKTGLRNVVPVVASLMAKGAVEVSEELK”, the “soluble fraction (log2)” value turned out to be 0.0501.

For the sequence “HMAIDYYQTLINLGYKLQDRGDYWQTSAIHRGGDNPTALQIYKNTGVWKDYVSGGGFKPFKALVEKSD”, the “soluble fraction (log2)” value was -0.802.

Consider “HMTPQNAAAVLRYLSSGAIKGVGPSTAQRIVEKFGAESLDIIQNKPEELATIRGISLSKALAVSEEYNKQY”, for which the “soluble fraction (log2)” value is -0.202.

In the case of “HMFVNADEIAKGLSPFNPSSVAIEAGRLMLKRIGELLSAGVSFSVETTLSTRSYINLIQQAQNQGYSVSL”, the “soluble fraction (log2)” value is at least 0.62.

On to “HMSHGFFELKTTQKEALIKLLDSHPNFTHTKTEADLTTAFLKLPMDAEQFNKLLFTNGIVLSHLVKRK”, for which the “soluble fraction (log2)” value is -0.668.

Consider “HMHGQGTYTSPDGTKYVGDWQDEKMHGQGTYTYPDGMKFVGEFKDNKPWNGTGYDKYGNVKATFSNGVGKS”, for which the “soluble fraction (log2)” value was 0.066.

As for “HMTYPGSIALVNPKHEAFVQHYVATSGSRGQAAKLAGVTTTTARNLLQDVEATARIRYLNAQQFQ”, the “soluble fraction (log2)” value is -0.107.

With “HMQERNYIVRRGDTLWDLAKTYYGSGTKYTVIYDANRDNIEAEAKRRGKQSSNGGYWIYPGTELTI”, the “soluble fraction (log2)” value was -0.368.

Consider “HMDYEVPEELQQKFEEFPRLKEAFYQLTPGRQHQYLYYFSQAKRSQTRYNRIDKYMNAILQGKGMK”, for which the “soluble fraction (log2)” value was -0.991.

With “HMGYTTSFVVQLKNAVSISFDEIDQNLRKLPGVEDVVIVEEAAMAYLKVDRQHFREEQLAHFEFVRQ”, the “soluble fraction (log2)” value was -0.29.

In the case of “HMANPRLEYFLSNITPDWNEFSPELKNQLLIENADPYKLEQYILQVSPDMYIEEQNAPGTVRQMAGDITG”, the “soluble fraction (log2)” value was determined as 0.09.

On to “HMGTTLTKIPGIGENRARLLLRHFGSLRAVREADADALAAVKGMTRPAAEAIVRYFEQQDAEGRRD”, for which the “soluble fraction (log2)” value was 0.21.

As for “HMAVGVFQKEDGYWGYRFSIIVDGKTIARRKFTDENGSKLRTKSEAVKARAAAMVAARMERVS”, the “soluble fraction (log2)” value was -2.96.

Consider “HMEENNIVIYITGAVKKEGIYEIKENSRISDAIEAAGGLLENANIKDINLAYIIEDGVKIYIPTNEEVNK”, for which the “soluble fraction (log2)” value was -0.192.

Take “HMSTYTETETAYLKAYSAAGVDGKISDSERGILNMTAEALGITVERTTELEAMFNLTVEEEA”: the “soluble fraction (log2)” value is -0.118.

In the case of “HMQMSDTSMIRDLVLQVLAENPQSIEDFKNGKDRAVGFLVGMVMKKSQGKANPQITNQMIVEELKK”, the “soluble fraction (log2)” value is -0.104.

With “HMESSSQLGFELARLVESGNDEEARALVQAKELSEADERKWLYHLGNLLHAAGRPLQASAIWREVGT”, the “soluble fraction (log2)” value worked out at 0.0628.

For “HMLMYAQDEKEEASNNIPYRLLHMSFTKEQKAELQRAMDVRVPKDIILSYFYPDTPVARMMEIRRQYESA”, the “soluble fraction (log2)” value is -0.472.

Turning to “HMANKTVPNVSGKTVAEARAIIENQSLQVGEEKEEYSDSVAEGYIIRTNPTAGSQKKEQSKIDLVVSKG”, the “soluble fraction (log2)” value was 0.203.

Regarding “HMQTLGADLRALRKARGLTLTDMAETLGRSVGWLSQVERDLSEPSITDLRHMARTLGVSVSMLFS”, the “soluble fraction (log2)” value is -1.41.

Regarding “HMDTHDVQVPQEGQGLRLDLFLTDHIEGSRSFIQTIIKDGHVILNGKKAKANSRLNEGDYVVWSIPKPE”, the “soluble fraction (log2)” value is -0.0683.

On to “HMSYQADEIKEKLIDILQNQKTGLSGLEISERIGINRITMTKYLQVFAAEGFIKQKNIGNVIIWFIEDGTE”, for which the “soluble fraction (log2)” value was -0.181.

With “HMRVDLVQRLARHGLSPRQSAVAGGVLRGLDNGEISRQLYIAEQTVKDHLHEIYHRLGVHTRTELLIKVLG”, the “soluble fraction (log2)” value is -1.6.

Turning to “HMAVSNWQKLVSSIQTQLKILALYHGPEDGIYGPNTRSAIMLYEENIGLPVTGEPSRELLAHMLDQTD”, the “soluble fraction (log2)” value is -0.869.

For the sequence “HMIEFYTMQDMFYFKLTGDNTSRERREALGKILGIGYGNATQMVSRLNNYGISKEEFSKAIEEIEKQLEA”, the “soluble fraction (log2)” value was -2.8.

With “HMHPDALTEREREVLSLLADGLSNREIAARLVLALGTVKWYISVIYSKLGVTRRTQAIARARELHLV”, the “soluble fraction (log2)” value is -0.0971.

“HMTLGPKQMGEAIIKNLKEKTGKSLEEWSQRILIHELTDKKEIIDFLKNDNGLGHFQALKIFEHLNGK”: the “soluble fraction (log2)” value was -0.02.

On to “HMAWAVRAGEGVLIRAGQPGFSATTRGTALSNGAIGEGVRVRNLGSGKEIQAWVVDKGEVETR”, for which the “soluble fraction (log2)” value came out at 0.0168.

For the sequence “HMHAEEIAREAKEALERGEEFHFAGITVRSEEALEFLEEWLRKFF”, the “soluble fraction (log2)” value was -0.659.

In the case of “HMKYWTISDLYSKLEEDQVELGAFSEDSNKVTVLDRQGYEHVIKILSSDVPALTELFRKKKVRFAVAG”, the “soluble fraction (log2)” value was -0.132.

As for “HMKLSKKVTDFLAQMPSKSISPKMLANNLGLADDAGDYKHLLKTIAQLEESKAIEVTAAGNIALPQPE”, the “soluble fraction (log2)” value stood at 0.0358.

On to “HMHPTEKNLTSLLADGSFYMNQNKLETAYDTFTKTIELDPSWAEAWNKRATVLYLMGKYELSQADIDQV”, for which the “soluble fraction (log2)” value is -0.0645.

For “HMAHTGGNTLTREKAVSVRSASDALLFEIHWNETPREDILSTREEKVDGKTYSIITIRTGKGREDHYYLLS”, the “soluble fraction (log2)” value is -0.29.

For “HMSRGTLFVDVRGAVAKPGVYELPEKSRVFQAVEAAGGLLPEALERLVNQAAELTDGQQVYIPFEGEE”, the “soluble fraction (log2)” value was 0.296.

In the case of “HMQLEPLITSVIPVNFAKAGEVATTIKGKEVGLVSDRGSITAESRTNVLIVKDIKKNVDDISAMVKRLD”, the “soluble fraction (log2)” value is 0.123.

“HMALYSEQVSEIEKALMSLPPKYQLVMLLLYAEDLKYEQIAEILDEPIGTVKTKIHRARKILKERF”: the “soluble fraction (log2)” value was -0.46.

Take “HMQPVLSDAEVNDLKNIAGGERGYNQLMDWAGNNLTAQDAKSYDDVLATGNKAAISFAIKALMGQYEDAN”: the “soluble fraction (log2)” value amounted to 0.047.

Consider “HMRHLSVPNRQVEGALDHIRSQGWLAEGMRVFASEDGSARLIPLGPGAPLEMLEPLAKFDVISHEGKPY”, for which the “soluble fraction (log2)” value was -0.0914.

As to “HMQRSVEDVFVQLRNGMDTYDMTQIEDALRILHGMELSTAQRDLLDKVQEAYNDLEYETGAALLAGFERIK”, the “soluble fraction (log2)” value is 0.0317.

“HMRININNASARQIADALPGVGLKTARDIKDFQTTLSGERYTRLDQLHSIKRVDWDEIFKADLVRV”: the “soluble fraction (log2)” value is -0.0293.

With “HMAMPQPVARALHRLGQDISAARRMRRLSQEDLAQRIGTSLSTVRRMEDGYPGTALHTFLRALHML”, the “soluble fraction (log2)” value was -0.261.

“HMATVHPIRIQGGMTTQQGGKTVWLWVSDEGRLMTEDEIAGESGGTVSSRMVRGVRVLTGTGVIYG”: the “soluble fraction (log2)” value was -2.02.

Take “HMDYPFQYFNYSHLRILGVPAQLIKAVRKAPTLDAIEQLSGLSEKTKLWLLELATEPKLEDVLFDPGR”: the “soluble fraction (log2)” value is -1.44.

“HMDSGINVWASAEGLTITADKDTTVYVYDIYGRTIHTSEVKAGTSDIAINTKGIVIVKANGYTKKII”: the “soluble fraction (log2)” value is -1.

As to “HMRAAFEHLTIGQTVSGLVKSQARGVSLVEIEGQTVAMRLPQPVAVGDTLRLRFAGHMPQPVFLLDT”, the “soluble fraction (log2)” value is -0.132.

Consider “HMDSSALEPIVDQIIADNPKQVEQFQAGKTKVLGFFVGQVMKQTDGTANPKQVNELVAARLKSA”, for which the “soluble fraction (log2)” value was determined as 0.181.

In the case of “HMSVKLYPNPTRSVTTFATDVDKWYLYDNQGKLVSEGNTKTIDVTAFPVGIYFVKTIKGNNSTFVKLIV”, the “soluble fraction (log2)” value was -1.4.

For “HMGIAFDYDAGRFDQVPPNLVEKWQQAYPAVDVLSELRRMEAWASANPVNRKSNWQRFIVNWLTRAQDRAG”, the “soluble fraction (log2)” value is -0.215.

Regarding “HMEFQVKVIVSSLNIRSGPGTSYDTLGTVTKGDIFTIVETNSDSTWGKMQSGGWISIKDAYVKK”, the “soluble fraction (log2)” value was -0.688.

As for “HMEEDPVIAAQRFLNIFRQLHIFTAAKRKEFDELLLKQPASVKGMFASLPGGSVLQEYVNNLEQNAG”, the “soluble fraction (log2)” value is -0.137.

As for “HMDLSYPFTTVTTDNVNMRRSASSSSVVLERIDKGDSITVLGTSGNYYKVSYNDRTGYVLKQYVDVSAATT”, the “soluble fraction (log2)” value is -0.173.

As for “HMNDMWADITINANGKATLVVHTHEIKYLGLTGHLGKMEINGTAKEPVKDSSGDVVDYYFTFTDLDASMF”, the “soluble fraction (log2)” value stood at 0.0763.

In the case of “HMIMPSDATEAKLLGVLGNEPLHVDEIRNQAELPIEKVSAALALMELKGMVRQVGGMNYVAVR”, the “soluble fraction (log2)” value worked out at 0.117.

With “HMVLSKGAKELLDFIMREGEVTTSKVVQKFGGSAQNASAKLKKLYATGLILGSKAVAESGGLEFVYKA”, the “soluble fraction (log2)” value came to 0.393.

“HMTGSALDATIEKLLDLGSKAGSVTEDEIQIVLKNVDVTDAQLSSIYQFLRDRGVEIVSATEDDD”: the “soluble fraction (log2)” value was 0.0977.

As for “HMNHLSYEQRLKIKEMLDGGFKKIDIARALGVHNATIYREIERGSVNGIYNPNKSEEQYRDHLSEK”, the “soluble fraction (log2)” value turned out to be 0.255.

As for “HMQSEISRIGRILKERRLQLGYTQEYAAEKAGISYSYYTKIERGQQLPSLEVAMVLSKTFSLSMDRWL”, the “soluble fraction (log2)” value was -4.77.

On to “HMVPHQPRVWTNTAGKTITAAFVRFNAAGRKVSLKLEKGRQVELPLASLSGNDVDWIKEHVPEAMSNQE”, for which the “soluble fraction (log2)” value was -0.142.

Take “HMPKLTKEEIQFIDNYLKNSGVEYIDTRAEVVDHVASEIESRLSANNTTNFYEEFKVYMVQHKETLLK”: the “soluble fraction (log2)” value is -0.49.

As to “HMTIELAEGQHFLQISKSGAPMGNVVRDLIIQTLKITNGNQIKAAKILGISRAKLRYRIEQLGINITGKNI”, the “soluble fraction (log2)” value is -2.67.

On to “HMPTSLPGIDIDEKNIVSSTGALSFKKVPKKLAIIGGGYIGLEMGSVWSRLGSSVTVIEYLNFITPG”, for which the “soluble fraction (log2)” value is -0.00687.
